This note sets out measurements from patent US20240025977A1 (UNIVERSITY HEALTH NETWORK, published 2024).

Assay [1] concerns the target FITC-labeled AL09 under amyloid-forming conditions. Briefly: cell-based or functional assay.
In assay [2] the target is T1, IAPP (islet amyloid polypeptide) amyloid in pancreatic tissue (human, UniProt P10997 34-70).
T1 construct: Tissue section; also called IAPP pancreatic tissue
T1 chain (looked up): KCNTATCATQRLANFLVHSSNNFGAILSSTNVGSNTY
Briefly: immunohistochemistry, pancreatic tissue.

The target of assay [3] is ATTR amyloid in human cardiac tissue (human, UniProt P02766 21-147). The assay is described as follows: immunohistochemistry, ATTR cardiac tissue.
The target of assay [4] is T2, misfolded/unfolded AL12 kappa light chain.
T2 construct: also called misfolded AL12
The assay is described as follows: bio-layer interferometry, Octet fit, table inset. The method, then:
(§1) FIGS. 13A-13D are bio-layer interferometry sensorgrams of binding interactions between LX-96 and misfolded (FIG. 13A, 13C) or native kappa light chain variants (FIG. 13B, 13D). Binding of LX-96 with its targets at a range of target concentrations was measured by changes in wavelength (nm) over 2000 seconds (300s association, 1700s dissociation). Association and dissociation curves were fit using Octet Systems Software to determine KD, KD Error, X2 and R2 values (table insets; FIGS. 13A-13D).
(§2) We quantified the monovalent binding affinity of LX-96 using bio-layer interferometry (BLI). LX-96 was loaded onto Anti-Mouse IgG Fc Capture (AMC) biosensors and dipped into a solution of varying concentrations of misfolded AL09 (0-200 nM) or native AL09 (0-3000 nM). From the sensorgram, we observed rapid association of misfolded AL09 with LX-96, followed by a slow dissociation step (FIG. 13A). […] This confirms that LX-96 is capable of binding specifically to the misfolded form of different kappa light chain variants at similar, single-digit nanomolar affinities.

Assay [5] concerns the target T2, misfolded/unfolded AL12 kappa light …. The assay is described as follows: BLI (Octet), LX-96 on Anti-Mouse IgG Fc Capture biosensors, misfolded AL12 in solution. Here is the method:
as §1, §2

The target of assay [6] is T3, misfolded/unfolded AL09 kappa light chain.
T3 construct: Same polypeptide as native AL09, in a chemically unfolded, reduced and alkylated state; also called misfolded AL09; mis/unfolded AL09
The assay is described as follows: BLI (Octet), LX-96 on Anti-Mouse IgG Fc Capture biosensors, misfolded AL09 0-200 nM in solution. The method, then:
as §1, §2

B1: LX-96 anti-kappa monoclonal antibody (antibody, V domains shown)
VH: QVQLQQPGAELARPGASVKLSCKASGYTFTSFWIQWIKQRPGQGLEWIGSIYPGDGDTRYIQKFRGKATLTADESSSTAYMQLSSLASEDSAIYYCAIVTTAPDYWGQGTTLTVSS
VL: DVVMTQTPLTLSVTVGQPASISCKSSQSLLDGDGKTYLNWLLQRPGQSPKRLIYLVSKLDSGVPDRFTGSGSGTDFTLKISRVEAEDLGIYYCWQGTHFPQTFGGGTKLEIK
notes: Fluorescently labeled in the in vivo localisation assay; also called anti-κ monoclonal antibody
On to B1, for which, in assay [1], the “inhibition of AL09 aggregation (FITC fluorescence of the soluble fraction at endpoint), IC50” value is under 1000 nM. Moreover, the binding result in assay [2] and in assay [3] was “no binding” throughout. The Kd stood at 7.47 nM in assay [4], 7.5 nM in assay [5] and 1.12 nM in assay [6].
